According to patent publication US20210401986A1:

Biological target: cetuximab (unconjugated anti-EGFR antibody)
Assay: cell-based or functional assay

With “AffiniPure Donkey Anti-Human IgG, Fcγ Fragment Specific (DxHu) antibody conjugated with IRDye 700DX” the percent cell death of BxPC3 cells (CellTox Green) after sequential labeling and 690 nm light at 16 J/cm^2 was 90%.
